Test results reported in paper PMC6380570.

What was measured:
[1] = biological target: S100A1 protein (1-93 amino acids); test: other fluorescence titration; tryptophan fluorescence of S100A1 (3.50 uM; excitation 295 nm, emission 344 nm); S100A4 added from 0 to 10.50 uM in steps of about 0.70 uM; 0.1 mM EDTA, 8 mM NaCl, 0.34 mM NaN3, 6 mM CaCl2, 16 mM Tris, pH 6.0; linear (double-reciprocal) fit
[2] = biological target: S100A1 protein (1-93 amino acids)

- Kd [1]: 6.2 µM
- WST-1 proliferation assay of SW480 cells (which contain RAGE) treated with the S100A4-S100A1 complex (100 nM), against S100A1 alone; pair said to be blocked: S100A1 and the RAGE V domain [2]: 1.38 fold
Substance: S100A4 (Mts1) protein (from UniProt P26447 4-101) (natural protein)
